Reference: PMC4621513

Biological target: APOBEC3G (A3G) protein, Q9HC16
Assay: AFM topographic imaging (protein volume); A3G mixed 2:1 with hybrid DNA substrate (418 bp duplex with 69 nt ssDNA overhang, deaminase specific or nonspecific) in 50 mM HEPES pH 7.5, 100 mM NaCl, 5 mM MgCl2, 1 mM DTT, 15 min at 37 °C; deposited on APS-mica, imaged in air; protein volume converted to mass; stoichiometry of A3G on the ssDNA
Details: remark: other sources report otherwise

B1: APOBEC3G (A3G) protein, Q9HC16 1-384 (enzyme)
chain: MKPHFRNTVERMYRDTFSYNFYNRPILSRRNTVWLCYEVKTKGPSRPPLDAKIFRGQVYSELKYHPEMRFFHWFSKWRKLHRDQEYEVTWYISWSPCTKCTRDMATFLAEDPKVTLTIFVARLYYFWDPDYQEALRSLCQKRDGPRATMKIMNYDEFQHCWSKFVYSQRELFEPWNNLPKYYILLHIMLGEILRHSMDPPTFTFNFNNEPWVRGRHETYLCYEVERMHNDTWVLLNQRRGFLCNQAPHKHGFLEGRHAELCFLDVIPFWKLDLDQDYRVTCFTSWSPCFSCAQEMAKFISKNKHVSLCIFTARIYDDQGRCQEGLRTLAEAGAKISIMTYSEFKHCWDTFVDHQGCPFQPWDGLDEHSQDLSGRLRAILQNQEN
stoichiometry N: 2
